Changes are numbered by the printed parent chain. Like-named read-outs stand apart in the source and are kept apart here.
B1: DQN0344H1013/L0620//DQN0385H1270/L0681-F6.v2 (bispecific antibody, V domains shown)
VH 1: QVQLVESGGGVVQPGRSLRLSCAASGFTFSSAYWMVWVRQAPGQGLEWMGAVYGGSDTTYYAKWTEGRFTISRDTSKNTLYLQMNSLRAEDTAVYYCAREPLNYYYYGELNVWGQGTLVTVSS
VL 1: DIQMTQSPSSLSASVGDRVTITCQATENIYSGLAWYQQKPGKAPKLLIYYVSTLAYGIPARFSGSGSGTDFTLTISSLEPEDFAVYYCQTYEDVSAVTFGQGTKVEIK
VH 2: QVQLVESGGGVVQPGRSLRLSCAASGFTFSEWYFMSWVRQAPGKGLEWVASIDTGSGSIDYAEWVEGRFTISRDNSKNTLYLQMNSLRAEDTAVYYCARDIGIDYNFWGPGTLVTVSS
VL 2: DIQMTQSPSSLSASVGDRVTITCQTTQSISSYLNWYQQKPGQPPKLLIYYASTKAEGIPARFSGSGLGTDFTLTISSLEPEDFAVYYCHYGISKVSFGQGTKVEIK
B2: DQN0344H1013/L0620//DQN0385H1270/L0722-F6 (bispecific antibody)
heavy 1: QVQLVESGGGVVQPGRSLRLSCAASGFTFSSAYWMVWVRQAPGQGLEWMGAVYGGSDTTYYAKWTEGRFTISRDTSKNTLYLQMNSLRAEDTAVYYCAREPLNYYYYGELNVWGQGTLVTVSSASTKGPSVFPLAPSSKSTSGGTAALGCLVKDYFPEPVTVSWNSGALTSGVHTFPAVLKSSGLYSLSSVVTVPSSSLGTQTYICNVNHKPSNTKVDKRVEPKSCDKTHTCPPCPAPELRRGPSVFLFPPKPKDTLMISRTPEVTCVVVDVSHEDPEVKFNWYVDGVEVHNAKTKPREEQYNSTYRVVSVLTVLHQDWLNGKEYKCKVSNKALPAPIEKTISKAKGQPREPQVYTLPPSREEMTKNQVSLTCLVKGFYPSDIAVEWESNGQPENNYKTTPPYLDSDGSFFLYSKLTVDKSRWQEGNVFSCSVLHEALHAHYTREELSLSP
light 1: DIQMTQSPSSLSASVGDRVTITCQATENIYSGLAWYQQKPGKAPKLLIYYVSTLAYGIPARFSGSGSGTDFTLTISSLEPEDFAVYYCQTYEDVSAVTFGQGTKVEIKRTVAAPSVFIFPPSDEQLKSGTAEVVCLLNNFYPREAKVQWKVDNALQSGNSEESVTEQDSKDSTYSLSSTLTLSKADYEKHKVYACEVTHQGLSSPVTKSFNRGEC
heavy 2: QVQLVESGGGVVQPGRSLRLSCAASGFTFSEWYFMSWVRQAPGKGLEWVASIDTGSGSIDYAEWVEGRFTISRDNSKNTLYLQMNSLRAEDTAVYYCARDIGIDYNFWGPGTLVTVSSASTKGPSVFPLAPSSKSTSGGTAALGCLVEDYFPEPVTVSWNSGALTSGVHTFPAVLESSGLYSLSSVVTVPSSSLGTKTYICNVNHKPSNTKVDKRVEPKSCDKTHTCPPCPAPELRRGPSVFLFPPKPKDTLMISRTPEVTCVVVDVSHEDPEVKFNWYVDGVEVHNAKTKPREEQYNSTYRVVSVLTVLHQDWLNGKEYKCKVSNKALPAPIEKTISKAKGQPREPQVYTLPPSRKEMTKNQVSLTCLVKGFYPSDIAVEWESNGQPENNYKTTPPYLDSDGSFFLYSKLTVDKSRWQQGNVFSCSVLHEALHAHYTRKELSLSP
light 2: DIQMTQSPSSLSASVGDRVTITCQTTQSISSYLNWYQQKPGQPPKLLIYYASTKAEGIPARFSGSGLGTDFTLTISSLQPEDFAVYYCHYGISKVSFGQGTKVEIKRTVAAPSVFIFPPSDEQLKSGTAKVVCLLNNFYPREAKVQWKVDNALQSGNSKESVTEQDSKDSTYSLSSTLTLSKADYEKHKVYACEVTHQGLSSPVTKSFNRGEC
B3: DQN0344H1013/L0620//DQN0385H1521/L0605-F6 (bispecific antibody)
heavy 1: B2 heavy 1
light 1: B2 light 1
heavy 2: B2 heavy 2 with S30E, E31S
light 2: B2 light 2 with L67S, Q79E

Legend:
[1] = molecular target: HLA-DQ2.2 on HBBB2.2 cells loaded with 33 mer gliadin peptide (human; wheat); assay: cell-based or functional assay
[2] = molecular target: T1, HLA-DQ2.5 on IHW09023 cells loaded with gamma 4a gliadin peptide (human; wheat); assay: cell-based or functional assay
[3] = molecular target: T2, HLA-DQ2.5 on IHW09023 cells loaded with gamma 4d gliadin peptide (human; wheat); assay: cell-based or functional assay
[4] = molecular target: T3, HLA-DQ2.5 on IHW09023 cells loaded with omega1/2 gliadin peptide (human; wheat); assay: cell-based or functional assay
[5] = molecular target: T4, HLA-DQ2.5 on IHW09023 cells loaded with gamma 2 gliadin peptide (human; wheat); assay: cell-based or functional assay
[6] = molecular target: T5, HLA-DQ2.5 on IHW09023 cells loaded with BC hordein peptide (human; barley); assay: cell-based or functional assay
[7] = molecular target: T6, HLA-DQ2.5 on IHW09023 cells loaded with gamma 1 gliadin peptide (human; wheat); assay: cell-based or functional assay
[8] = molecular target: T7, HLA-DQ2.5 on IHW09023 cells loaded with 33 mer gliadin peptide (human; wheat); assay: cell-based or functional assay
[9] = molecular target: T8, HLA-DQ2.5 on IHW09023 cells loaded with gamma 3 gliadin peptide (human; wheat); assay: cell-based or functional assay
[10] = molecular target: T1, HLA-DQ2.5 on IHW09023 cells loaded with …; assay: cell-based or functional assay; remark: listed apart in the source
[11] = molecular target: T2, HLA-DQ2.5 on IHW09023 cells loaded with …; assay: cell-based or functional assay; remark: listed apart in the source
[12] = molecular target: T3, HLA-DQ2.5 on IHW09023 cells loaded with …; assay: cell-based or functional assay; remark: listed apart in the source
[13] = molecular target: T4, HLA-DQ2.5 on IHW09023 cells loaded with …; assay: cell-based or functional assay; remark: listed apart in the source
[14] = molecular target: T5, HLA-DQ2.5 on IHW09023 cells loaded with …; assay: cell-based or functional assay; remark: listed apart in the source
[15] = molecular target: T6, HLA-DQ2.5 on IHW09023 cells loaded with …; assay: cell-based or functional assay; remark: listed apart in the source
[16] = molecular target: T7, HLA-DQ2.5 on IHW09023 cells loaded with …; assay: cell-based or functional assay; remark: listed apart in the source
[17] = molecular target: T8, HLA-DQ2.5 on IHW09023 cells loaded with …; assay: cell-based or functional assay; remark: listed apart in the source
HLA-DR on Ba/F3 cells = molecular target: T9, HLA-DR on Ba/F3 cells (human, UniProt P01903 26-216; P79483 30-227, limits assumed); assay: FACS, Ba/F3 cells; raw MFI
T9 construct: whole, on cells; also called Ba/F3-HLA-DR
T9 MHC II alpha: not shown
T9 MHC II beta: not shown

HLA-DQ6.3 on Ba/F3 cells = molecular target: T10, HLA-DQ6.3 on Ba/F3 cells (human, UniProt P01920 33-230, limits assumed); assay: FACS, Ba/F3 cells; raw MFI
T10 construct: whole, on cells; also called Ba/F3-HLA-DQ6.3
T10 MHC II alpha: not shown
T10 MHC II beta: not shown

HLA-DQ5.1 on Ba/F3 cells = molecular target: T11, HLA-DQ5.1 on Ba/F3 cells (human, limits assumed); assay: FACS, Ba/F3 cells; raw MFI
T11 construct: whole, on cells; also called Ba/F3-HLA-DQ5.1
T11 MHC II alpha: not shown
T11 MHC II beta: not shown

HLA-DP on Ba/F3 cells = molecular target: T12, HLA-DP on Ba/F3 cells (human, UniProt P20036 29-222; P04440 30-225, limits assumed); assay: FACS, Ba/F3 cells; raw MFI
T12 construct: whole, on cells; also called Ba/F3-HLA-DP

HLA-DQ7.5 on Ba/F3 cells [18] = molecular target: T13, HLA-DQ7.5 on Ba/F3 cells (human, UniProt P01909 24-216; P01920 33-230, limits assumed); assay: FACS, Ba/F3 cells; %MFI with IC17dK 0 and DQN0139bb 100
T13 construct: whole, on cells; also called Ba/F3-HLA-DQ7.5

HLA-DQ2.2 on Ba/F3 cells [19] = molecular target: T14, HLA-DQ2.2 on Ba/F3 cells (human, UniProt P01909 24-216, limits assumed); assay: as above
T14 construct: whole, on cells; also called Ba/F3-HLA-DQ2.2
T14 MHC II alpha: not shown
T14 MHC II beta: not shown

HLA-DQ2.5 on Ba/F3 cells [20] = molecular target: T15, HLA-DQ2.5 on Ba/F3 cells (human, UniProt P01909 24-216, limits assumed); assay: as above
T15 construct: whole, on cells; MHC class II without a fused peptide; also called Ba/F3-HLA-DQ2.5

HLA-DQ8 on Ba/F3 cells [21] = molecular target: T16, HLA-DQ8 on Ba/F3 cells (human, UniProt P01909 24-216; P01920 33-230, limits assumed); assay: as above
T16 construct: whole, on cells; also called Ba/F3-HLA-DQ8
T16 MHC II alpha: not shown
T16 MHC II beta: not shown

HLA-DQ7.3 on Ba/F3 cells [22] = molecular target: T17, HLA-DQ7.3 on Ba/F3 cells (human, UniProt P01909 24-216; P01920 33-230, limits assumed); assay: as above
T17 construct: whole, on cells; also called Ba/F3-HLA-DQ7.3
T17 MHC II alpha: not shown
T17 MHC II beta: not shown

HLA-DQ7.5 on Ba/F3 cells [23] = molecular target: T13, HLA-DQ7.5 on Ba/F3 cells; assay: as above; remark: listed apart in the source
HLA-DQ2.2 on Ba/F3 cells [24] = molecular target: T14, HLA-DQ2.2 on Ba/F3 cells; assay: as above
HLA-DQ2.5 on Ba/F3 cells [25] = molecular target: T15, HLA-DQ2.5 on Ba/F3 cells; assay: as above; remark: listed apart in the source
HLA-DQ8 on Ba/F3 cells [26] = molecular target: T16, HLA-DQ8 on Ba/F3 cells; assay: as above
HLA-DQ7.3 on Ba/F3 cells [27] = molecular target: T17, HLA-DQ7.3 on Ba/F3 cells; assay: as above

T12 sequence (P20036 29-222 limits assumed, chain 1 of 4, other chains not shown): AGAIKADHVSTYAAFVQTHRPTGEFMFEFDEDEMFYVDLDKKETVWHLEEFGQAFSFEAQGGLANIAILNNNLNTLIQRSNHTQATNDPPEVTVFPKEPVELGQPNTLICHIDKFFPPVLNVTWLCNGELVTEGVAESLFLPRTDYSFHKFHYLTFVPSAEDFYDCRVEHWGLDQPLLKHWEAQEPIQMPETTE
T12 sequence (P04440 30-225 limits assumed, chain 2 of 4, other chains not shown): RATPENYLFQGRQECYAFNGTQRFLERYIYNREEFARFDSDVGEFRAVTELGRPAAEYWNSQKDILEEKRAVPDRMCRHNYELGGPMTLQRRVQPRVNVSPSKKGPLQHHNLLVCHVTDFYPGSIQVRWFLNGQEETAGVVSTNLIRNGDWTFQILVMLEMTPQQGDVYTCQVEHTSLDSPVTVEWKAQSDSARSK

Row | Binder | IC50, γ4a gliadin TCR, 25 µM γ4a gliadin [10] | IC50, γ4d gliadin TCR, 100 µM γ4d gliadin [11] | IC50, ω1 gliadin TCR, 25 µM ω1/2 gliadin [12] | IC50, γ2 gliadin TCR, 250 nM γ2 gliadin [13] | IC50, BC hordein TCR, 250 nM BC hordein [14] | IC50, γ1 gliadin TCR, 250 nM γ1 gliadin [15] | IC50, α1a gliadin TCR, 250 nM 33mer gliadin [16] | IC50, α1b gliadin TCR, 250 nM 33mer gliadin [16] | IC50, α2 gliadin TCR, 250 nM 33mer gliadin [16] | IC50, γ3 gliadin TCR, 100 µM γ3 gliadin [17] | binding result (HLA-DR on Ba/F3 cells) | binding result (HLA-DQ6.3 on Ba/F3 cells) | binding result (HLA-DQ5.1 on Ba/F3 cells) | binding result (HLA-DP on Ba/F3 cells) | other results
1 | B1 |  |  |  |  |  |  |  |  |  |  |  |  |  |  | IC50, HLA-DQ2.2, α1a gliadin TCR, 25 µM 33mer gliadin [1]: 1.62 ng/mL; IC50, HLA-DQ2.2, α2 gliadin TCR, 1 µM 33mer gliadin [1]: 4.6 ng/mL; IC50, γ4a gliadin TCR, 25 µM γ4a gliadin [2]: 1980 ng/mL; IC50, γ4d gliadin TCR, 100 µM γ4d gliadin [3]: 27.8 ng/mL; IC50, ω1 gliadin TCR, 25 µM ω1/2 gliadin [4]: 3.19 ng/mL; IC50, ω2 gliadin TCR, 250 nM ω1/2 gliadin [4]: 0.49 ng/mL; IC50, γ2 gliadin TCR, 250 nM γ2 gliadin [5]: 280 ng/mL; IC50, BC hordein TCR, 250 nM BC hordein [6]: 25.2 ng/mL; IC50, γ1 gliadin TCR, 250 nM γ1 gliadin [7]: 5.85 ng/mL; IC50, α1a gliadin TCR, 250 nM 33mer gliadin [8]: 0.63 ng/mL; IC50, α1b gliadin TCR, 250 nM 33mer gliadin [8]: 1.42 ng/mL; IC50, α2 gliadin TCR, 250 nM 33mer gliadin [8]: 0.53 ng/mL; IC50, γ3 gliadin TCR, 100 µM γ3 gliadin [9]: 4.84 ng/mL
2 | B2 | 1150 ng/mL | 10.1 ng/mL | 2.17 ng/mL | 277 ng/mL | 9.7 ng/mL | 1.03 ng/mL | 0.27 ng/mL | 1.25 ng/mL | 0.33 ng/mL | 3.31 ng/mL | no binding (tested: 0.05 ug/mL) | no binding (tested: 0.05 ug/mL) | no binding (tested: 0.05 ug/mL) | no binding (tested: 0.05 ug/mL) | IC50, ω2 gliadin TCR, 250 nM ω1/2 gliadin [12]: 0.22 ng/mL; binding result (HLA-DQ7.5 on Ba/F3 cells [18]): no binding (tested: 0.05 ug/mL); binding result (HLA-DQ2.2 on Ba/F3 cells [19]): no binding (tested: 0.05 ug/mL); binding result (HLA-DQ2.5 on Ba/F3 cells [20]): no binding (tested: 0.05 ug/mL); binding result (HLA-DQ8 on Ba/F3 cells [21]): no binding (tested: 0.05 ug/mL); binding result (HLA-DQ7.3 on Ba/F3 cells [22]): no binding (tested: 0.05 ug/mL)
3 | B3 | 1350 ng/mL | 13 ng/mL | 1.91 ng/mL | 853 ng/mL | 8.98 ng/mL | 0.68 ng/mL | 0.28 ng/mL | 1.76 ng/mL | 0.33 ng/mL | 1.4 ng/mL | no binding (tested: 0.05 ug/mL) | no binding (tested: 0.05 ug/mL) | no binding (tested: 0.05 ug/mL) | no binding (tested: 0.05 ug/mL) | binding result (HLA-DQ7.5 on Ba/F3 cells [23]): no binding (tested: 0.05 ug/mL); binding result (HLA-DQ2.2 on Ba/F3 cells [24]): no binding (tested: 0.05 ug/mL); binding result (HLA-DQ2.5 on Ba/F3 cells [25]): no binding (tested: 0.05 ug/mL); binding result (HLA-DQ8 on Ba/F3 cells [26]): no binding (tested: 0.05 ug/mL); binding result (HLA-DQ7.3 on Ba/F3 cells [27]): no binding (tested: 0.05 ug/mL)

From US20220089743A1 (Chugai, published 2022)
